Data published in PMC12657241.

What was measured:
[1] = molecular target: wild-type OppA, periplasmic binding protein of the oligopeptide permease (Opp) ABC transporter (E. coli) (UniProt P23843); assay: MST
[2] = molecular target: OppA-iso, evolved OppA variant (E. coli) (UniProt P23843); assay: MST

Kd [1] | Kd [2] | Substance
50 µM | 37 µM | G-SisoK, isopeptide-linked tripeptide
300 µM | 300 µM | SisoK, isopeptide-linked dipeptide (serine on the ε-amine of lysine)
71 µM | 275 µM | linear GSK tripeptide
